Test system: peptide library, one residue held at a place counted from the Y acceptor
Experiment: relative phosphorylation of the sub-library (ratio to the mean residue at this position); higher = residue favoured
In short: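 Every value reflects phosphorylation relative to the mean randomized residue. The sum of the 18 randomized residues, or 16 in the Ser/Thr-free library, served to normalize intensities at each position, which were then multiplied by that number. Intensities came from phosphorimaging with ImageQuant of biotinylated Tyr-centred peptides captured on streptavidin membranes after 90 min with purified recombinant kinases and 50 μM ATP plus γ-32P-ATP.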

Chain of MUSK, construct: aa529-end, human (O15146 529-869, looked up): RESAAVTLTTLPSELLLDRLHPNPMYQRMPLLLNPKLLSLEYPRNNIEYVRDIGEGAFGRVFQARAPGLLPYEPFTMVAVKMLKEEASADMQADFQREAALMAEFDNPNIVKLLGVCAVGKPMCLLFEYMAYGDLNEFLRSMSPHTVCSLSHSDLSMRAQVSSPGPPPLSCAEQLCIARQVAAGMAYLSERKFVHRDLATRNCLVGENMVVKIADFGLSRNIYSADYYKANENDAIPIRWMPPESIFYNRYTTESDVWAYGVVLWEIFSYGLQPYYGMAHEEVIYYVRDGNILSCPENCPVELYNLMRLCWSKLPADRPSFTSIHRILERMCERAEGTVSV
Chain of IRR, construct: aa945-end, human (P14616 945-1297, looked up): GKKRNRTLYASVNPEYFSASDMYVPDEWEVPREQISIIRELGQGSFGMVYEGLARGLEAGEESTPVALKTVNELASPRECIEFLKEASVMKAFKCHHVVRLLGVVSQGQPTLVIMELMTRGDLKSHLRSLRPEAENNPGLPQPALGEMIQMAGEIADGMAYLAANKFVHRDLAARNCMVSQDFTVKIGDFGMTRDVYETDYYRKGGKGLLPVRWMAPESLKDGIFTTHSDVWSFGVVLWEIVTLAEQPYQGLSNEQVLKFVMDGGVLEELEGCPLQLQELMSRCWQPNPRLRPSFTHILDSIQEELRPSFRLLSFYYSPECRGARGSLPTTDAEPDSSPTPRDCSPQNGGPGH

MUSK, construct: aa529-end, human (from UniProt O15146)
relative phosphorylation
Conditions | at +1 | at +2 | at +3 | at +4 | at +5 | at -1 | at -2 | at -3 | at -4 | at -5
A fixed | 1.21 | 0.711 | 0.689 | 0.799 | 0.969 | 0.559 | 0.817 | 0.963 | 1.25 | 1.09
D fixed | 0.341 | 0.179 | 0.233 | 0.665 | 0.832 | 0.932 | 0.856 | 1.09 | 0.763 | 0.981
E fixed | 0.619 | 0.251 | 0.156 | 0.481 | 0.784 | 2.14 | 1.44 | 1 | 0.919 | 0.766
F fixed | 1.9 | 1.59 | 1.49 | 1.06 | 1.01 | 1.33 | 0.962 | 1.16 | 1.38 | 1.33
G fixed | 0.835 | 0.386 | 0.886 | 0.94 | 1.08 | 0.401 | 1.06 | 0.981 | 1.14 | 1.06
H fixed | 1.68 | 0.852 | 0.868 | 1.2 | 1.07 | 1.51 | 1.14 | 1.04 | 0.977 | 0.891
I fixed | 1.31 | 1.54 | 1.59 | 0.808 | 0.781 | 1.5 | 1.02 | 0.87 | 1.02 | 0.946
K fixed | 0.317 | 1.58 | 0.99 | 1.53 | 1.15 | 0.248 | 0.779 | 0.855 | 0.822 | 0.916
L fixed | 0.926 | 1.12 | 1.09 | 0.907 | 1.02 | 1.62 | 1.09 | 1.04 | 1.13 | 1.17
M fixed | 1.58 | 0.918 | 1.24 | 1.1 | 0.964 | 0.939 | 0.914 | 1.15 | 0.996 | 1.13
N fixed | 0.41 | 0.774 | 0.62 | 0.848 | 0.935 | 2.14 | 1.35 | 1.09 | 0.877 | 1.04
P fixed | 0.151 | 0.654 | 1.2 | 0.974 | 1.04 | 0.476 | 0.672 | 0.865 | 1.09 | 1.01
Q fixed | 0.768 | 0.847 | 0.48 | 1.11 | 0.786 | 0.782 | 1.04 | 0.881 | 1.06 | 1.11
R fixed | 0.541 | 2.19 | 2.06 | 1.57 | 1.66 | 0.255 | 0.976 | 0.866 | 0.972 | 0.892
S fixed | 0.58 | 0.819 | 0.591 | 1.04 | 0.858 | 0.437 | 1.05 | 1.09 | 0.721 | 0.804
T fixed | 0.563 | 0.862 | 0.843 | 0.771 | 0.987 | 0.465 | 1.03 | 0.936 | 0.627 | 0.663
V fixed | 1.55 | 1.69 | 1.48 | 0.86 | 0.836 | 1.19 | 0.921 | 0.874 | 0.881 | 0.962
W fixed | 2.72 | 1.05 | 1.49 | 1.36 | 1.24 | 1.06 | 0.892 | 1.25 | 1.39 | 1.25
pThr fixed | 1.15 | 0.475 | 0.215 | 0.619 | 0.435 | 1.32 | 0.741 | 0.718 | 0.587 | 0.773
pTyr fixed | 11.8 | 1.11 | 0.592 | 0.73 | 0.832 | 5.58 | 1.07 | 1.32 | 0.963 | 1.02

IRR, construct: aa945-end, human (from UniProt P14616)
relative phosphorylation
Conditions | at +1 | at +2 | at +3 | at +4 | at +5 | at -1 | at -2 | at -3 | at -4 | at -5
A fixed | 1.2 | 0.697 | 0.453 | 0.79 | 0.702 | 0.948 | 1.06 | 0.957 | 0.997 | 1.03
D fixed | 0.718 | 0.923 | 0.342 | 1.35 | 0.583 | 2.42 | 1.56 | 1.39 | 1.41 | 1.13
E fixed | 1.07 | 1.49 | 0.322 | 1.26 | 0.575 | 1.66 | 1.53 | 1.53 | 1.28 | 1.03
F fixed | 1.4 | 1.19 | 1.51 | 1.06 | 2.09 | 0.666 | 0.685 | 0.903 | 0.854 | 0.904
G fixed | 0.637 | 0.368 | 0.424 | 0.931 | 0.838 | 0.608 | 1.14 | 0.972 | 1.08 | 0.998
H fixed | 1.85 | 1.07 | 1.37 | 1.24 | 1.21 | 1.08 | 0.901 | 1.13 | 1.07 | 1.09
I fixed | 0.849 | 0.881 | 1.73 | 0.828 | 1.03 | 0.842 | 0.63 | 0.618 | 0.772 | 0.87
K fixed | 0.399 | 0.686 | 0.433 | 0.906 | 0.693 | 0.35 | 0.977 | 0.864 | 1.05 | 1.28
L fixed | 1.19 | 1.32 | 1.6 | 0.807 | 0.985 | 0.916 | 0.705 | 0.717 | 0.742 | 0.825
M fixed | 2.18 | 1.44 | 2.06 | 0.975 | 1.06 | 0.75 | 0.803 | 0.779 | 0.853 | 0.84
N fixed | 0.618 | 0.911 | 0.484 | 1.14 | 0.844 | 2.07 | 1.37 | 1.45 | 1.14 | 1.13
P fixed | 0.423 | 0.796 | 0.374 | 0.892 | 1.37 | 1.07 | 1.24 | 0.834 | 0.957 | 0.978
Q fixed | 0.998 | 1.02 | 0.546 | 1.04 | 0.867 | 0.911 | 1.18 | 1.24 | 1.19 | 1.12
R fixed | 0.353 | 0.796 | 0.665 | 0.918 | 1.06 | 0.386 | 0.992 | 1.16 | 1.05 | 1.19
S fixed | 0.835 | 0.771 | 0.509 | 0.977 | 0.705 | 0.856 | 1.06 | 1.05 | 0.847 | 0.88
T fixed | 0.867 | 0.801 | 0.741 | 1.07 | 0.781 | 0.945 | 1.05 | 0.996 | 0.876 | 0.803
V fixed | 0.906 | 0.945 | 1.43 | 0.85 | 0.723 | 0.757 | 0.651 | 0.647 | 0.776 | 0.806
W fixed | 1.21 | 1.47 | 2.26 | 1.01 | 1.35 | 0.576 | 0.576 | 0.797 | 0.781 | 0.766
pThr fixed | 1.57 | 1.06 | 0.323 | 0.922 | 0.584 | 1.66 | 1.23 | 1.27 | 1.2 | 1.07
pTyr fixed | 1.06 | 1.64 | 0.393 | 1.12 | 0.513 | 2.83 | 1.35 | 1.26 | 0.928 | 1.02

Source: the supplement of paper PMC11136658
